Data from article PMC4236683 (2014).

Columns and labels:
[1] = biological target: T1, PlexinA2 (Mus musculus, UniProt P70207); assay: saturation binding
T1 chain: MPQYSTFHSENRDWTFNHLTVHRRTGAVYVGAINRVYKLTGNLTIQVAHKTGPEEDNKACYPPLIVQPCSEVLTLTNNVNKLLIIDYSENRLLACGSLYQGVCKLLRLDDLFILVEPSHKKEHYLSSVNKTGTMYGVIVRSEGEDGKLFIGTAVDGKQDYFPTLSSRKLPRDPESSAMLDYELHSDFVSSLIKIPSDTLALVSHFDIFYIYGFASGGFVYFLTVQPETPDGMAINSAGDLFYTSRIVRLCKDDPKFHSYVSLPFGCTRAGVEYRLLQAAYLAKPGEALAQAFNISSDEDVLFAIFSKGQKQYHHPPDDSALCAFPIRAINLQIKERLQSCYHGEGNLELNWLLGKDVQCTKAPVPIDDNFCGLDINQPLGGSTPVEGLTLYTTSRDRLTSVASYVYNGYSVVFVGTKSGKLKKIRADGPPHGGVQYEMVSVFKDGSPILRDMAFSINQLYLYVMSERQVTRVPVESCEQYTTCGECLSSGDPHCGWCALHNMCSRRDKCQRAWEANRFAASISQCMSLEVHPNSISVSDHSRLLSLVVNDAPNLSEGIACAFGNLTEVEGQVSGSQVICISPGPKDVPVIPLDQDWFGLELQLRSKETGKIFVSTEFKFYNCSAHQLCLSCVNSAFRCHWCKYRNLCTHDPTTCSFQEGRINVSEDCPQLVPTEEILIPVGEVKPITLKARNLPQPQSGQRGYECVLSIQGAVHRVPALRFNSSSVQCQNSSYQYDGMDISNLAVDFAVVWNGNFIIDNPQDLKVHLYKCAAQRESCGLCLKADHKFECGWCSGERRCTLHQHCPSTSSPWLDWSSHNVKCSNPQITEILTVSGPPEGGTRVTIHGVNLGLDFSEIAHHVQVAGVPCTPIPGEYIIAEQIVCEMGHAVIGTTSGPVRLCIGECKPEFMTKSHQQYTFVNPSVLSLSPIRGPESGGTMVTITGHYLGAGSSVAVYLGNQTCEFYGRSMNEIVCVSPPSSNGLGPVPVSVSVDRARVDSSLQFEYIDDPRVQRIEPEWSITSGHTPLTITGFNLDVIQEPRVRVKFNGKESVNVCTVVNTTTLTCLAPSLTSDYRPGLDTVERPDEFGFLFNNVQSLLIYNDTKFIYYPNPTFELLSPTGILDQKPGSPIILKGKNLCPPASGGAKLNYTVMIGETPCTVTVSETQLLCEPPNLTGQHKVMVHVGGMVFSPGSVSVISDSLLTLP

[2] = biological target: PlexinA1 (Mus musculus, UniProt P70206); assay: saturation binding
PlexinA1, sequence (P70206 28-1242): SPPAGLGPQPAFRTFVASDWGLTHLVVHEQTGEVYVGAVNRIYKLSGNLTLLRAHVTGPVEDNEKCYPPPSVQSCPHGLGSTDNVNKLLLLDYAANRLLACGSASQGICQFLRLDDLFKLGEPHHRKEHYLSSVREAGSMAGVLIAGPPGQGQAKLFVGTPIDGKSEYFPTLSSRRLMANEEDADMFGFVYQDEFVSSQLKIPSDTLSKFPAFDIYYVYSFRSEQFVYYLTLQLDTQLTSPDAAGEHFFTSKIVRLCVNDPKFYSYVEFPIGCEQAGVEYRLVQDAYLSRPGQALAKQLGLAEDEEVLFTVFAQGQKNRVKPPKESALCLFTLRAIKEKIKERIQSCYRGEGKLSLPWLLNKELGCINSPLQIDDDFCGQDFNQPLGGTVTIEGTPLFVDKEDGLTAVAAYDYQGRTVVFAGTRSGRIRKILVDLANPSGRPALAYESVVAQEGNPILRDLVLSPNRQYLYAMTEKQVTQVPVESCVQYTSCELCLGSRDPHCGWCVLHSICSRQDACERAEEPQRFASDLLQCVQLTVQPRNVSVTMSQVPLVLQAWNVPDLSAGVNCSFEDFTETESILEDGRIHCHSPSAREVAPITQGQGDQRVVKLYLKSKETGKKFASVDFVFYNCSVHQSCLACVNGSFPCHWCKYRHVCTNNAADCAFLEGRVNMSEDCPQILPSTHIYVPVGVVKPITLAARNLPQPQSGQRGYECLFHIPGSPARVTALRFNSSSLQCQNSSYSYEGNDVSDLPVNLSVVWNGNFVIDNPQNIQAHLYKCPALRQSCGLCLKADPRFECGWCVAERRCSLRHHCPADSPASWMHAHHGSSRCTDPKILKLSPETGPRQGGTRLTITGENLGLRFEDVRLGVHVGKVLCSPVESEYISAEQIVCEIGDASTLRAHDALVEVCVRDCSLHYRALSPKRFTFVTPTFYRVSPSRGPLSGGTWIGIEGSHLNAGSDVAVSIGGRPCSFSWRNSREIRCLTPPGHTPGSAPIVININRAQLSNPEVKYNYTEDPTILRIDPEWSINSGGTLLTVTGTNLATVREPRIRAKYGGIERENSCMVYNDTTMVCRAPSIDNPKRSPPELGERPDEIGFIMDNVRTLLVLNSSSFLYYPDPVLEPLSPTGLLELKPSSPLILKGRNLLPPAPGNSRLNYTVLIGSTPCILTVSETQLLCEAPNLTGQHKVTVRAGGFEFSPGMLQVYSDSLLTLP

- Kd [1]: ~11.5 nM
- Kd [2]: ~11.5 nM
B1: Sema5A-Fc (protein)
chain: PETQDPAKCQRAEHPVVSYKEIGPWLREFRAENAVDFSRLTFDPGQKELVVGARNYLFRLELEDLSLIQAVEWECDEATKKACYSKGKSKEECQNYIRVLLVGGDRLFTCGTNAFTPVCTIRSLSNLTEIHDQISGMARCPYSPQHNSTALLTASGELYAATAMDFPGRDPAIYRSLGTLPPLRTAQYNSKWLNEPNFVSSYDIGNFTYFFFRENAVEHDCGKTVFSRPARVCKNDIGGRFLLEDTWTTFMKARLNCSRPGEVPFYYNELQGTFFLPELDLIYGIFTTNVNSIASSAVCVFNLSAISQAFNGPFKYQENSRSAWLPYPNPNPNFQCGTMDQGLYVNLTERNLQDAQKFILMHEVVQPVTTVPSFMEDNSRFSHLAVDVVQGRETLVHIIYLGTDYGTIKKVRAPLSQSSGSCLLEEIELFPERRSEPIRSLQILHSQSVLFVGLQEHVAKIPLKRCHFHQTRSACIGAQDPYCGWDAVMKKCTSLEESLSMTQWDQSIPTCPTRNLTVDGSFGPWSPWTPCTHTDGTAVGSCLCRSRSCDRPAPQCGGWQCEGPRMEITNCSRNGGWTPWTSWSPCSTTCGIGFQVRQRSCSNPTPRHGGRVCVGQNREERYCNEHLLCPPHVFWTGWGPWERCTAQCGGGIQARRRTCENGPDCAGSNVEYHPCNTNACPELKKTTPWTPWTPVNISDNGGHYEQRFRYTCKARLPDPNLLEVGRQRIEMRYCSSDGTSGCSTDGLSGDFLRAGRYSAHTVNGAWSAWTSWSQCSRDCSRGIRNRKRVCNNPEPKFGGMPCLGPSLEFQECNILPCPVDGVWSCWSSWSKCSATCGGGHYMRTRSCSNPAPAYGGDICLGLHTEEALCNTQTCPESWSEWSDWSVCDASGTQVRARQCILLFPVGSQCSGNTTESRPCVFDSNFIPEVSVARSSSVEEKRCGEFNMFHM
